Measurements as given in article doi:10.1101/2020.09.29.318410.

Target: T4Lnano fusion protein (CBP - ER/K motif - T4L - linker - CaM)
Test: crystal structure

**Q.** “T4Lnano fusion protein (CBP - ER/K motif - T4L - linker - CaM)” was tested. Which stoichiometry N did it give?
**A.** 2
